{"source": "patent US9850520B2", "about": "“Electrochemical detection of proteases using AC voltammetry on nanoelectrode arrays” (Kansas State University Research Foundation, priority 2013, dated 2017)", "molecules": {"B1": {"name": "legumain: Recombinant human legumain/asparaginyl endopeptidase (molecular weight 49 kDa) from R&D Systems (protein, UniProt Q99538 18-323, looked up)", "Legumain": "VPIDDPEDGGKHWVVIVAGSNGWYNYRHQADACHAYQIIHRNGIPDEQIVVMMYDDIAYSEDNPTPGIVINRPNGTDVYQGVPKDYTGEDVTPQNFLAVLRGDAEAVKGIGSGKVLKSGPQDHVFIYFTDHGSTGILVFPNEDLHVKDLNETIHYMYKHKMYRKMVFYIEACESGSMMNHLPDNINVYATTAANPRESSYACYYDEKRSTYLGDWYSVNWMEDSDVEDLTKETLHKQYHLVKSHTNTSHVMQYGNKTISTMKVMQFQGMKRKASSPVPLPPVTHLDLTPSPDVPLTIMKRKLMNTN"}}, "biological_target": "T1, H2N—(CH2)4—CO-(SEQ ID NO:1)-NH—CH2-Fc (Homo sapiens, UniProt Q99538)", "T1 construct": "purchased R&D Systems Inc. (Minneapolis, Minn.)", "T1 sequence (Q99538 18-323 limits assumed)": "B1 Legumain", "assay": "ACV proteolysis kinetics of legumain on Fc-tetrapeptide immobilized on VACNF NEA", "assay_type": "biochemical", "source_text": "In the protease study, a tetrapeptide H2N—(CH2)4—CO-(SEQ ID NO:1)-NH—CH2-Fc is covalently attached to the exposed tip of a VACNF NEA as shown in FIG. 2. Fc provides reliable redox signals at 0.25 V vs. Ag/AgCl (3M KCl) in ACV measurements. As shown in later sections, the unique structure of VACNF NEA enables the enhanced ACV signal at over 1750 Hz AC frequency. Upon being supplied with legumain (a cancer related protease), the peptide is cleaved at the site between Asn and Leu. As a result, the Fc moiety is released from the electrode surface into bulk solution, causing the redox signal to decrease. The kinetic of the enzymatic reaction at the electrode surface can be monitored by continuously repeated ACV measurements. The advantage of this method is that the Fc label provides a characteristic redox signal which can be easily separated from the nonFaradaic background and other redox signals. However, the mechanism becomes complicated for enzymes requiring much longer peptide sequences for specific recognition. The Fc signal involves electron transfer between Fc molecule and the electrode surface, which is highly sensitive to the Fc surface distance. This may vary in a large range depending on the molecular packing of the long peptides on the electrode surface.\nFor protease analysis, the tetrapeptide H2N—(CH2)4—CO-(SEQ ID NO:1)-NHCH2-Fc was covalently linked to the VACNF NEA by forming amide bond facilitated by EDC and sulfo-NHS. In order to stabilize the electronic signal, the electrode surface was reacted with 6-amino-1-hexanol to fill the remaining —COOH sites. […]\nThe electrochemical measurements were performed in a TEFLON cell with a total volume of 250 μL for legumain experiments and 120 μL for kinase/phosphatase experiments. […] The average AC current was measured as the potential was swept from −0.05 to +0.65 V at 10 mV/s scan rate using a staircase waveform. […]\nThe change in peak current (ip,acv) during continuously repeated ACV measurements with Fc-linked tetrapeptide immobilized on a VACNF NEA was measured. […]", "key": {"[1]": {"details": "Example 4, [E0]=80.1 nM legumain"}}}
{"molecule": "B1", "values": [{"measurement": "time constant of exponential decay", "setting": "Example 1, [E0]=773 nM legumain, f 1750 Hz, V0 150 mV", "result": 1076, "unit": "s"}, {"measurement": "slope of reaction rate vi vs Γsurf", "setting": "[1]", "result": 0.00063, "unit": "s⁻¹"}, {"measurement": "time constant of exponential decay", "setting": "[1]", "result": 1101, "unit": "s"}]}
